Results: patent US8367124B2, “Lymphatic vessel stabilizer” (Shiseido Company, Ltd., priority 2008, dated 2013)

B1: angiopoietin 1 (protein, UniProt O08538 20-498, looked up)
Angiopoietin-1: SNQRRNPENGGRRYNRIQHGQCAYTFILPEHDGNCRESATEQYNTNALQRDAPHVEPDFSSQKLQHLEHVMENYTQWLQKLENYIVENMKSEMAQIQQNAVQNHTATMLEIGTSLLSQTAEQTRKLTDVETQVLNQTSRLEIQLLENSLSTYKLEKQLLQQTNEILKIHEKNSLLEHKILEMEGKHKEELDTLKEEKENLQGLVSRQTFIIQELEKQLSRATNNNSILQKQQLELMDTVHNLISLCTKEGVLLKGGKREEEKPFRDCADVYQAGFNKSGIYTIYFNNMPEPKKVFCNMDVNGGGWTVIQHREDGSLDFQRGWKEYKMGFGNPSGEYWLGNEFIFAITSQRQYMLRIELMDWEGNRAYSQYDRFHIGNEKQNYRLYLKGHTGTAGKQSSLILHGADFSTKDADNDNCMCKCALMLTGGWWFDACGPSNLNGMFYTAGQNHGKLNGIKWHYFKGPSYSLRSTTMMIRPLDF
modifications: adenovirus-expressed
notes: mouse-derived Ang-1 gene expressed from AdenoX adenovirus vector in vivo

What was measured:
Tie2 = target: T1, Tie2 (Homo sapiens, UniProt Q02763); assay: Western blotting of lymphatic endothelial cells (Tie2 phosphorylation); type: cell-based; conditions: Western blot of Tie2 and phosphorylated Tie2, DMSO control, compared with Ang-1
T1 construct: endogenous in cells; host or cells: primary human lymphatic endothelial cells from infant foreskin
T1 sequence (Q02763 23-1124): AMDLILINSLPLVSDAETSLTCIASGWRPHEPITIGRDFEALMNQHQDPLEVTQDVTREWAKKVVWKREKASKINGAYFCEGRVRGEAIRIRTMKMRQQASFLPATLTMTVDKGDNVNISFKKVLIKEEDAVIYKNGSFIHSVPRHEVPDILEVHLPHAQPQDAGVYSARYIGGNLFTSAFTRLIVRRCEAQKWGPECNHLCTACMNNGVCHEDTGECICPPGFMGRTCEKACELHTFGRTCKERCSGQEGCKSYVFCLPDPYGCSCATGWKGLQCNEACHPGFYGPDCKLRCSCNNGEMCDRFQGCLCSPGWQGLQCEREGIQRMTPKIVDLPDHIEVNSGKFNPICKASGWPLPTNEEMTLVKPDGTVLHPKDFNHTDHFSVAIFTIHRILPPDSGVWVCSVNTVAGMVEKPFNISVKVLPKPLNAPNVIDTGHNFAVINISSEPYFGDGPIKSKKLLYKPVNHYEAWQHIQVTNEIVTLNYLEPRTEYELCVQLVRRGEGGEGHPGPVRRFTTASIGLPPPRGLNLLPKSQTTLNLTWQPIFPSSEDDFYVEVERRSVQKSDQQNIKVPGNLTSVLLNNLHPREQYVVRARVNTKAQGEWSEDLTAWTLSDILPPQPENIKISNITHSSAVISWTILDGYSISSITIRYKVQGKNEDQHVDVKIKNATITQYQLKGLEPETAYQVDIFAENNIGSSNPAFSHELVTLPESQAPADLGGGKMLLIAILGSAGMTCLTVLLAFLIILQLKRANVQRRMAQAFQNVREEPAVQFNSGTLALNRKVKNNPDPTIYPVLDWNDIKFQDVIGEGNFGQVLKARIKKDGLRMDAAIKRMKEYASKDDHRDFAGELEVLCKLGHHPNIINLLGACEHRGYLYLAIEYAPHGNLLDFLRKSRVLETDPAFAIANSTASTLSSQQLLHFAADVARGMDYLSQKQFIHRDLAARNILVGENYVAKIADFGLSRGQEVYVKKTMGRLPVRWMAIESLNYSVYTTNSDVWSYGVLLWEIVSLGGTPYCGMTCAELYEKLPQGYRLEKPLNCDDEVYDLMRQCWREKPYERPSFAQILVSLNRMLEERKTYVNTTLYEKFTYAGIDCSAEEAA
Description: Lymphatic endothelial cells were isolated from human infant foreskin as CD31-positive, CD34-negative, CD45-negative cells (Non-Patent Document 6). The lymphatic endothelial cells were cultured in EBM-2 (Cambrex, Verviers, Belgium) supplemented with addition factors, and protein was extracted with Phosphosafe Extraction Reagent (Novagen, Madison, Wis.) in the presence of various drugs (Ang-1, cinnamon bark extract, Siberian Ginseng extract and syringaresinol). Cells supplemented with DMSO were prepared as a control.
Furthermore, the cinnamon bark extract and syringaresinol were prepared in the manner indicated below. The Siberian Ginseng extract (Ask Intercity) was obtained by extracting Siberian Ginseng root with 30% ethanol. This extract was confirmed to contain 1.01% by weight syringaresinol by HPLC. This extract was then dissolved with DMSO for use as each test sample. The total amount of protein was determined with the RC DC Protein Assay Kit (BIO-RAD, Hercules, Calif.), and detected by Western blotting in the manner described below. An equal amount of total protein was subjected to SDS-PAGE using 7.5% acrylamide gel (NPU-7.5L, ATTO, Japan), and expression of Tie2 and phosphorylated Tie2 protein was confirmed by staining with an ECL Kit using […] (Santa Cruz Biotechnology, Santa Cruz, Calif.).

lymphatic vessels = assay: Lymph drainage assay (colloidal carbon injected into the auricle of mice infected with Ang-1 adenovirus); type: in vivo, mouse
Description: The auricles of 8-week-old mice were infected with adenovirus (1×10^9 ifu/mouse), in which mouse-derived angiopoietin-1 (Ang-1) gene was incorporated into an AdenoX vector, with a Hamilton syringe (Hamilton, Reno. NV). Mice were also infected with adenovirus incorporating only AdenoX vector as a control. 1 μl of colloidal carbon solution (Kamei Co., Ltd., Japan) was injected into the tip of the auricle with a Hamilton syringe followed by analysis of time-based changes in the flow of lymph. […] In addition, a visual assessment of changes in lymphatic vessel recovery function was also carried out, and comparisons were made by scoring to one of levels (5: all ink remaining in lymphatic vessels, 1: all ink recovered and no longer present in lymphatic vessels), the results of which are shown in FIG. 1.
In addition, after sacrificing the animals by anesthesia, the ears of the animals were simultaneously collected and crushed in liquid nitrogen followed by extraction of protein with Phosphosafe Extraction Reagent (Novagen, Madison, Wis.). The total amount of protein was determined with the RC DC Protein Assay Kit (BIO-RAD, Hercules, Calif.) and detected by Western blotting in the manner described below. […]

| Molecule | Tie2 phosphorylation (activation) (Tie2) | lymphatic vessel recovery function (time-based changes in the flow of lymph) (lymphatic vessels; ears of mice highly expressing Ang1 via adenovirus, 1 μl colloidal carbon into tip of auricle, vs AdenoX vector control, data not shown) | lymphatic vessel recovery function, visual assessment score (5: all ink remaining, 1: all ink recovered) (lymphatic vessels; mouse auricle, Ang-1 adenovirus vs AdenoX vector control, FIG. 1) |
| --- | --- | --- | --- |
| COc1cc(C2OCC3C(c4cc(OC)c(O)c(OC)c4)OCC23)cc(OC)c1O (stereo not drawn) [syringaresinol, Syringaresinol] | confirmed to activate Tie2 in the same manner as Ang-1 | – | – |
| B1 | – | promoted | remarkable promotion of lymphatic vessel recovery function |
